These results are taken from paper PMC8274477 (Frontiers in Cell and Developmental Biology, 2021).

The assay deals with T1, OTULIN (OTU deubiquitinase with linear linkage specificity, FAM105B), His-tagged, biotin-labelled (human, UniProt Q96BN8 1-352, biotin (label; sites not stated)).
T1 construct: OTULIN (FAM105B), cDNA in pET28a; also called HIS-OTULIN; source: E. coli BL21 (DE3), purified (His-tag Purification Resin), labelled with biotin; not shown: His6, N-terminal, kept
The experiment in a line: peptide or protein array; HuProt human proteome microarray; 5 ug/5 ml biotin-labelled LUBAC or OTULIN in solution, 1 h at room temperature; Cy5-streptavidin, scanned at 635 nm; BSA as negative control; hits: Z-score >= 3 and I_(Mean_Ratio) >= 1.4. Conditions: both partners purified.

B1: WBP2NL (natural protein, human, UniProt Q6ICG8 1-309, looked up)
chain: MAVNQSHTENRRGALIPNGESLLKRSPNVELSFPQRSEGSNVFSGRKTGTLFLTSYRVIFITSCSISDPMLSFMMPFDLMTNLTVEQPVFAANFIKGTIQAAPYGGWEGQATFKLVFRNGDAIEFAQLMVKAASAAARGFPLRTLNDWFSSMGIYVITGEGNMCTPQMPCSVIVYGAPPAGYGAPPPGYGAPPAGYGAQPVGNEGPPVGYRASPVRYGAPPLGYGAPPAGYGAPPLGYGAPPLGYGTPPLGYGAPPLGYGAPPAGNEGPPAGYRASPAGSGARPQESTAAQAPENEASLPSASSSQVHS
notes: WBP2NL; protein on the human proteome microarray; source: spotted on the HuProt human proteome microarray
On to B1, for which the binding result is “binds”.

B2: BLVRB (natural protein, human, UniProt P30043 1-206, looked up)
chain: MAVKKIAIFGATGQTGLTTLAQAVQAGYEVTVLVRDSSRLPSEGPRPAHVVVGDVLQAADVDKTVAGQDAVIVLLGTRNDLSPTTVMSEGARNIVAAMKAHGVDKVVACTSAFLLWDPTKVPPRLQAVTDDHIRMHKVLRESGLKYVAVMPPHIGDQPLTGAYTVTLDGRGPSRVISKHDLGHFMLRCLTTDEYDGHSTYPSHQYQ
notes: BLVRB; protein on the human proteome microarray; source: spotted on the HuProt human proteome microarray
B2: the binding result is given as “binds”.

B3: ALKBH3 (natural protein, human, UniProt Q96Q83 1-286, looked up)
chain: MEEKRRRARVQGAWAAPVKSQAIAQPATTAKSHLHQKPGQTWKNKEHHLSDREFVFKEPQQVVRRAPEPRVIDREGVYEISLSPTGVSRVCLYPGFVDVKEADWILEQLCQDVPWKQRTGIREDITYQQPRLTAWYGELPYTYSRITMEPNPHWHPVLRTLKNRIEENTGHTFNSLLCNLYRNEKDSVDWHSDDEPSLGRCPIIASLSFGATRTFEMRKKPPPEENGDYTYVERVKIPLDHGTLLIMEGATQADWQHRVPKEYHSREPRVNLTFRTVYPDPRGAPW
notes: ALKBH3; protein on the human proteome microarray; source: spotted on the HuProt human proteome microarray
Turning to B3, the binding result was “binds”.

B4: C17orf82 (natural protein, human, UniProt Q86X59 1-251, looked up)
chain: MGRPLEGQPLRALDLYPEPAFLRSGKDPKSSPASSPSFAVLGPEVRSTGGQAGSRRRPSAPCSQDRAAAEGAPALLGGSPSSGSPGHPPGSAFGVEAGCRALNVSEHARGGFALGLPFGLSGGAYLFLLLDGAGDPKPTPEAPISSADGRAWFPSESSWQLPQLPAGSTSGSEPRARPGLGPRQLLTGPRDGAAGQGPGRGLTARLGREREIDCGPRQAGHGGTATDTGRAGSGARHRPPRDRGTPGLRTH
notes: C17orf82; protein on the human proteome microarray; source: spotted on the HuProt human proteome microarray
For B4, the binding result is listed as “binds”.

B5: C1orf74 (natural protein, human, UniProt Q96LT6 1-269, looked up)
chain: MLLLDLMSSPSPQLLVAAAQQTLGMGKRRSPPQAICLHLAGEVLAVARGLKPAVLYDCNCAGASELQSYLEELKGLGFLTFGLHILEIGENSLIVSPEHVCQHLEQVLLGTIAFVDVSSCQRHPSVCSLDQLQDLKALVAEIITHLQGLQRDLSLAVSYSRLHSSDWNLCTVFGILLGYPVPYTFHLNQGDDNCLALTPLRVFTARISWLLGQPPILLYSFSVPESLFPGLRDILNTWEKDLRTRFRTQNDFADLSISSEIVTLPAVAL
notes: C1orf74; protein on the human proteome microarray; source: spotted on the HuProt human proteome microarray
Regarding B5, the binding result is listed as “binds”.

B6: ALKBH2 (natural protein, human, UniProt Q6NS38 1-261, looked up)
chain: MDRFLVKGAQGGLLRKQEEQEPTGEEPAVLGGDKESTRKRPRREAPGNGGHSAGPSWRHIRAEGLDCSYTVLFGKAEADEIFQELEKEVEYFTGALARVQVFGKWHSVPRKQATYGDAGLTYTFSGLTLSPKPWIPVLERIRDHVSGVTGQTFNFVLINRYKDGCDHIGEHRDDERELAPGSPIASVSFGACRDFVFRHKDSRGKSPSRRVAVVRLPLAHGSLLMMNHPTNTHWYHSLPVRKKVLAPRVNLTFRKILLTKK
notes: ALKBH2; protein on the human proteome microarray; source: spotted on the HuProt human proteome microarray
For the molecule B6, the binding result is given as “binds”.

B7: XAGE3 (natural protein, human, UniProt Q8WTP9 1-111, looked up)
chain: MIWRGRSTYRPRPRRSVPPPELIGPMLEPGDEEPQQEEPPTESRDPAPGQEREEDQGAAETQVPDLEADLQELSQSKTGGECGNGPDDQGKILPKSEQFKMPEGGDRQPQV
notes: XAGE3; protein on the human proteome microarray; source: spotted on the HuProt human proteome microarray
B7: the binding result is “binds”.

B8: TTC9 (natural protein, human, UniProt Q92623 1-222, looked up)
chain: MERKGSAAGAKGNPSPPAAGEGQRPPPPLCVPGGGGGAPARGQVGAAAEPAELIRRAHEFKSQGAQCYKDKKFREAIGKYHRALLELKGLLPPPGERERDSRPASPAGALKPGRLSEEQSKTVEAIEIDCYNSLAACLLQAELVNYERVKEYCLKVLKKEGENFKALYRSGVAFYHLGDYDKALYYLKEARTQQPTDTNVIRYIQLTEMKLSRCSQREKEAM
notes: TTC9; protein on the human proteome microarray; source: spotted on the HuProt human proteome microarray
As for B8, the binding result is “binds”.

B9: ANXA3 (natural protein, human, UniProt P12429 1-323, looked up)
chain: MASIWVGHRGTVRDYPDFSPSVDAEAIQKAIRGIGTDEKMLISILTERSNAQRQLIVKEYQAAYGKELKDDLKGDLSGHFEHLMVALVTPPAVFDAKQLKKSMKGAGTNEDALIEILTTRTSRQMKDISQAYYTVYKKSLGDDISSETSGDFRKALLTLADGRRDESLKVDEHLAKQDAQILYKAGENRWGTDEDKFTEILCLRSFPQLKLTFDEYRNISQKDIVDSIKGELSGHFEDLLLAIVNCVRNTPAFLAERLHRALKGIGTDEFTLNRIMVSRSEIDLLDIRTEFKKHYGYSLYSAIKSDTSGDYEITLLKICGGDD
notes: ANXA3; protein on the human proteome microarray; source: spotted on the HuProt human proteome microarray
For the molecule B9, the binding result is reported as “binds”.

B10: BPHL (natural protein, human, UniProt Q86WA6 38-291, looked up)
chain: SVTSAKVAVNGVQLHYQQTGEGDHAVLLLPGMLGSGETDFGPQLKNLNKKLFTVVAWDPRGYGHSRPPDRDFPADFFERDAKDAVDLMKALKFKKVSLLGWSDGGITALIAAAKYPSYIHKMVIWGANAYVTDEDSMIYEGIRDVSKWSERTRKPLEALYGYDYFARTCEKWVDGIRQFKHLPDGNICRHLLPRVQCPALIVHGEKDPLVPRFHADFIHKHVKGSRLHLMPEGKHNLHLRFADEFNKLAEDFLQ
notes: BPHL; protein on the human proteome microarray; source: spotted on the HuProt human proteome microarray
In the case of B10, the binding result was “binds”.

B11: C11orf1 (natural protein, human, UniProt Q9H5F2 1-150, looked up)
chain: MAASQCLCCSKFLFQRQNLACFLTNPHCGSLVNADGHGEVWTDWNNMSKFFQYGWRCTTNENTYSNRTLMGNWNQERYDLRNIVQPKPLPSQFGHYFETTYDTSYNNKMPLSTHRFKREPHWFPGHQPELDPPRYKCTEKSTYMNSYSKP
notes: C11orf1; protein on the human proteome microarray; source: spotted on the HuProt human proteome microarray
Regarding B11, the binding result is “binds”.

B12: TTC9C (natural protein, human, UniProt Q8N5M4 1-171, looked up)
chain: MEKRLQEAQLYKEEGNQRYREGKYRDAVSRYHRALLQLRGLDPSLPSPLPNLGPQGPALTPEQENILHTTQTDCYNNLAACLLQMEPVNYERVREYSQKVLERQPDNAKALYRAGVAFFHLQDYDQARHYLLAAVNRQPKDANVRRYLQLTQSELSSYHRKEKQLYLGMFG
notes: TTC9C; protein on the human proteome microarray; source: spotted on the HuProt human proteome microarray
Turning to B12, the binding result is on record as “binds”.

B13: C21orf59 (natural protein, human, UniProt P57076 1-290, looked up)
chain: MVLLHVKRGDESQFLLQAPGSTELEELTVQVARVYNGRLKVQRLCSEMEELAEHGIFLPPNMQGLTDDQIEELKLKDEWGEKCVPSGGAVFKKDDIGRRNGQAPNEKMKQVLKKTIEEAKAIISKKQVEAGVCVTMEMVKDALDQLRGAVMIVYPMGLPPYDPIRMEFENKEDLSGTQAGLNVIKEAEAQLWWAAKELRRTKKLSDYVGKNEKTKIIAKIQQRGQGAPAREPIISSEEQKQLMLYYHRRQEELKRLEENDDDAYLNSPWADNTALKRHFHGVKDIKWRPR
notes: C21orf59; protein on the human proteome microarray; source: spotted on the HuProt human proteome microarray
Take B13: the binding result is “binds”.
